Assay: soluble on expression in E. coli; label from the status in PepcDB or PDB records

Sequence | soluble on expression in E. coli
MKERIVGQSGELFCFGQMPVWKVENLPEVLLSGYSSEEGEWVCLNVLQGDVEVRAPDGSAEVWSADGGDCVFAPQQVFSVKPKTDDAEIRLSLYCAAADYFHKKYGMSATHSAVAAARDTVPAGRALDMGCGQGRNALFLGLKGFEVTAVDHNPAALANVAELAEAEGLNVRTLEYDLNAAALQGEFDYIVATVVLMFLMPQRVPDVIADMQAHTAAGGYNLIVSAMDTADFPCPMPFPFKFKEGELKDYYRDWELVEYKEELGSMHAKDENGNPIRFKFVTMLAKKPELEHHHHHH | not soluble
GPGSMPPSHTLLNRRGQQFSSRMHVGAKRKRVEDNASPVSSLYRPLCRGLSTRGSGASAVSCPSVVVILEKAGLLLGREGVVDAYDRAGSTTIANASLRDVRPDIVHQCLLALFDSGLAQEQRQLRVFINLFSRGGRTVEVSPSLRPPRTLRRFKGLVAALLRDGVVRSQDGEVLLQVLPGSLAPVLPYGAEVIGLTNAHSAPVRTPTQLARAALENPVDDKLQGGLKGVAGFFCICCSEDGSLDGVDYVTQQVCLSAYPMTAHVMCSRLCEGFSRAAATGNR | not soluble
LTLGSISLTAFIMGVVFWGGFNTALEATNTEEFCIGCHSMESKPYQELQKTVHWSNHSGVRATCPDCHVPHSWGRKIARKMEASSDVWGWVFNTVNTSEKFEDKRLEMASREWARFERDDSLACKNCHNYDSMKWDTMSKLAQKQMKRAAEKDQSCVDCHKGIAHILPDMGTARAPQLIAEVGTGPSKFTNEQYYFSALTKPLFFSAKGDVEAGTLNVATKVKILESKENRVKVSISGWRKQIGAGRVIYYDFGINMLTAQLSKEAAKTEGVINGFEEKEDEMTGLKWQRVETTLWTDAEYLITEQQPLWDYARTTFRSSCSVCHTQPDEAHFDA | not soluble
MKNSNFPAEVKDLTKRIRTVLMATAQMKEHEKDPEMLVDLQYSLANSYASTPELRRTWLESMAKIHARNGDLSEAAMCYIHIAALIAEYLKRKGYWKVEKICTASLLSEDTHPCDSNSLLTTPSGGSMFSMGWPAFLSITPNIKEEGAMKEDSGMQDTPYNENILVEQLYMCVEFLWKSERYELIADVNKPIIAVFEKQRDFKKLSDLYYDIHRSYLKVAEVVNSEKRLFGRYYRVAFYGQGFFEEEEGKEYIYKEPKLTGLSEISQRLLKLYADKFGADNVKIIQDSNKVNPKDLDPKYAYIQVTYVTPFFEEKEIEDRKTDFEMHHNINRFVFETPFTLSGKKHGGVAEQCKRRTILTTSHLFPYVKKRIQVISQSSTELNPIEVAIDEMSKKVSELNQLCTMEEVDMIRLQLKLQGSVSVKVNAGPMAYARAFLEETNAKKYPDNQVKLLKEIFRQFADACGQALDVNERLIKEDQLEYQEELRSHYKDMLSELSTVMNEQITGRDDLSKRGVDQTCTRVISKATPALPTVSISSSAEV | not soluble
MSLTNNVIHLIPEIERILRIKYDDKQKELFYKINENNILVLTGFAGTGKSSVLNGLLNLFDKKNITYKLMSPTAKAAKRMEECTGKKASTIHRALGLAEGKFLVNEKNPFAEDVIIIDETSMVDIYLFLAVLKGIKNTTKLLCLGDYGQLESISAGNVLFDMIQGGIPCVKLEKIFRQKEDSSLLNVITNIRNGDNPLKNTHKTYLELGRDCKFWLGKKEQTLSRVLLCYKECLKHFSREDIMVLCPMKKGNSGVNKLNQELQKIANSQNTEELKLKDCAYKKEDLVMHIKNDYNANIFSEDCKDTIAKGIFNGDAGKIEKIDLENQKLYVSYDSGIVEYDNSNLNELMLSYALTIHKVQGSQSKVVIVALDMSHYKMLKRSLLYTAASRCVELLIFICDPKAFSIALNNNQVTHKNTFLGELLKISEGHHHHHH | not soluble
MVLTDEQRQAIAKKREEAIRRAAAYREREMQAAANATASTSSAAPPAPPKPVIPVMFSQNRQNFQPMKPTMNNSTKQSTINNYIKQVQKPEPTSLIKPTIGVKLKLDIGDRIKIEFYPFHSAVIDLIKQVPSRNYDPAKRSWTVASSDHITISNILKNATAVKVELEPLPQNIIGLTNFKPKAAPSDLNTVMDPSLIERLFPYQKEGVIFALERDGRILLADEMGLGKSVQALTIARYYKADWPLLIVCPASVKGAWKKQLNTFFPIIHRIFIVDKSSDPLPDVCTSNTVAIMSYEQMVLKHDILKKEKYRTIIFDESHMLKDGKARRTKVATDLSKVALHVILLSGTPALSRPSELFTQIRLIDHKLFTNFHEFAIRYCDGKQGRFCFEAKGCTNSEELAAIMFKRLMIRRLKADVLKDLPEKRREVVYVSGPTIDARMDDLQKARADYEKVNSMERKHESLLEFYSLTGIVKAAAVCEHILENYFYPDAPPRKVLIFAHHQIVLDTIQVEVNKRKLGSIRIDGKTPSHRRTALCDSFQTDDNIRVAVLSITAAGVGITLTAASVVVFAEIHFNPGYLVQAEDRAHRVGQKDSVFVQYLIAKKTADDVMWNMVQQKLDVLGQVSLSSDTFRTADKMHLRFNDAAQPGIAEYLKKTPDTTIDEWEDPVEEKEDDDLEIICDSPAPKRIKN | not soluble
MSLDRKLKGSVEEKTLEYLRKRPEIYMALSTGIVNLNGLAALISKENDGMNQLSIRSVLQKMIRDGLVSDYRKSTDDLLKRSKVTLQDKVSVITSRRKIDIDFLSVTFLTDSVVYIVDETRAKNIPKDALIERNVSLIHIFSPPEIVTTPGFAMNVVQRIYAANVNILQLISCSNETMIVVNRDDAISAYSALTSYEGHHHHHH | soluble
MAHFGKLALSVTAAAVLALSAQARDQIKMAGSSTVYPFSSYVAEEFGATTGNKTPVVESLGTGGGFKVFCAGDGLDTTDIANASRPIKKSEFDNCVANGVTDITGVMIGYDGISIAQSKANAAINFKIEHLFLALAEEVPVDGKLVKNPYKTWNQVDASLPNRPIVVYGPPTTS | not soluble
RRNDDAGMIIPSFGISYDDQYDLIDEIERISKLTDVDEIKKSMDAIDGKKMDFDLGGVVAVGIPNKFLSATVYGKLYTESFVQPNVDTSGADPLTDSYVQGVSIGVAEAGVSLAKYTNFMNQHLSFGITPKLQRIYTYSYATSFKNFDTKDLREHETAETMFNLDAGALWFFGPYRLGISAKNLIGRDVKTKSFQYNTDTIQSYEYSMRPVYTVGAGIVADYFTMSVDYDLNEEKRFSSFDDNTQMIRAGFEIDILRQMALRGGYMKNLARSNDEGTITAGIGLSPLNLIELDISARYTNENAMGASINFLATY | not soluble
MAHHHHHHMTVGAAALCEYYGYLPRLVRHTGLLPSTRTSVTSSMAATVLQSSLYEADPSPPVRSGEFELPSTYSLHKPLVYDIAALPPKPVSSLRLVIISDTHERHREMSVPNGDVLVHCGDIQEGLNFVRDVKAMLIDFSAWFTDSALHPHPVKLIIAGNHDKAIAAMSTEDVRRLFAPAVYLCEDSVVVEPAGVRFYGSPRSISNSRWSPNTAFQGKKAWKRFVFASARQDDEAGAVSTASRCSSEQPLRSRLEGATPGGPVDVLVVHQSPDIPRAHHSVSEQPICAYAQQVAPRRVLLCGHLHGAHGMHRLPVPEHVRKSFRIATRGGGGQPEGVVRMDEIPHLPCINAAMMTGRFGQNVLLPPSVVDLEL | not soluble
MWDVIVVGGGPSGLSAALFLARAGLKVLVLDGGRSKVKGVSRVPNYPGLLDEPSGEELLRRLEAHARRYGAEVRPGVVKGVRDMGGVFEVETEEGVEKAERLLLCTHKDPTLPSLLGLTRRGAYIDTDEGGRTSYPRVYAAGVARGKVPGHAIISAGDGAYVAVHLVSDLRGEPYKDHAL | soluble
MQGEDTIMKTTELKLVYFSPTGTTRRVIMEAARQIDLKSVSFDLSVHKEKKPVLQFDETDFVLFGIPVYSGRVPETFLSYFETLKGNNTPAALIATYGCRAYEDALLELKTEVENRGFHVIGAGAFPTEHSIVRSIGLSRPNKADLKTISEFGIALNRRIKNEDLSALSIQVPGNTPYRKYAKTPLIPKADVSLCTECKACVKSCPAGAISAQDPKKTDKKKCISCLRCVRSCKQKARSVSSMKLSMAAKKLNKVCQSDKAADIFL | not soluble
GSLSRLSYKSNNNSFVLGIGISVPGEPISQQSLKDSISNDFSDKAETNEKVKRIFEQSQIKTRHLVRDYTKPENSIKFRHLETITDVNNQFKKVVPDLAQQACLRALKDWGGDKGDITHIVSVTSTGIIIPDVNFKLIDLLGLNKDVERVSLNLMGCLAGLSSLRTAASLAKASPRNRILVVCTEVCSLHFSNTDGGDQMVASSIFADGSAAYIIGCNPRIEETPLYEVMCSINRSFPNTENAMVWDLEKEGWNLGLDASIPIVIGSGIEAFVDTLLDKAKLQTSTAISAKDCEFLIHTGGKSILMNIENSLGIDPKQTKNTWDVYHAYGNMSSASVIFVMDHARKSKSLPTYSISLAFGPGLAFEGCFLKNVV | soluble
MAHHHHHHMLQPFQLLQSLVSPIVGVSAKVTVGNQAKDDFLLKTLAIDKKKLDPSYFEKYDNLKWEGKIIAIGDIHGDMESLKLILRHANLINENDEWIAENVLLVQVGDVLDRGIYGPLIYNYLFKLQKEAPLKKSKVLLIMGNHEQLNMCGYFNYVNQKEVEIFFKNNFNYRLFHFVSTAGEYFKKLIRLPVIAKVNDILFVHAGISKQISSLSLQTIRLKTRLQIENMCKILSYDKSRDYVNREGVLWYDHVSRTAPYDEKQACAILSHVFNKYGAKHLVVGHTKQMTHEISTYCNGGLFLIDTGMSLFMNNGQPYPNYLVAENGIFKSVHLNVEVNKKSKYCDSLEIELRSPNKQSFCIHAKETLLSPPNGG | not soluble
MRAPFISSLVKTLVHTDYDTSTGEVRSRRATGFVVGLTGEWGLGKSSVLNLLEHDLKQMEHVAVATLNPWLFKGRDEVVEAYFNALREALGFSSSEKARKLLVHLARYKASIEFVGATTAVVIDFVVGTGSATAIWKKWVLKVVRFLSKSRGLSANEERKNLEAKLAEAKIAIVMLIDELDRVEDEEVRVVAQLVKAVGDIKGISYLVAYDPSRVAQALGKGSTPEEKQKAGESYLEKIIQFPIPLRPLFMDEARDLLLQAMRNNDVTMPAESQSYQTEILNQLLRVIRTPREIKRLIGAFAVLEEIVRGLEHHHHHH | soluble
MGELIYGEVKKQTKDGFIIDLGDNAEAYLAREEMIAKEILRPKQRMNAILYSVNREGRGAQLLLSRALEHHHHHH | not soluble
MAGDPMKNILIFPFLSISTGHHHVADALQAELESQGLAAEKIDIFSHSYRRLEKLSSVAYLKWIQYFPKTYSGIYRLLACGEFQHDKRYFMYECVFTQQMRHILQEKQPDIAFCTHALPSYLLNRLKPEYPNLTVVNVYTDFFVNQLWGRKNIDYHFVPSTEVKKQLISEGIDQNNIYLTGIPVHQNFEMESADTLQHHPPYTIIITGGSMGVGGILKWVQELSPGGKILYKILCGRNEKLYSYVKSLHHPLIEAIPYLHSKAEMNRLYEQATGIMTKPGGVTISECLQKRLPVFIYHALPGQEEMNLNLLHERKLVTDMRNWDMQKAEEYIAAFFQSNEQMKEYKKHVNGYLGEMSDRKIKDVLKRIIWKQKNTLLKLEHHHHHH | not soluble
TTNKPIVLSTWNFGLHANVEAWKVLSKGGKALDAVEKGVRLVEDDPTERSVGYGGRPDRDGRVTLDACIMDENYNIGSVACMEHIKNPISVARAVMEKTPHVMLVGDGALEFALSQGFKKENLLTAESEKEWKEWLKTSQYKPIVNIENHDCIGMIALDAQGNLSGACTTSGMAYKMHGRVGDSPIIGAGLFVDNEIGAATATGHGEEVIRTVGTHLVVELMNQGRTPQQACKEAVERIVKIVNRRGKNLKDIQVGFIALNKKGEYGAYCIQDGFNFAVHDQKGNRLETPGFALK | soluble
MGSDKIHHHHHHMQVLLVGGTGTLGRQIARRAIDAGHQVRCMVRKPRKGAFLQEWGCELTCGDLLDPETIDYSLDGIDAVIDAATSRPDDSASVYTTDWDGKLNLLRACEKAGVTRYVFLSLLAAEKHLNVPLMDIKFCTERLLADSSFDYTILQGVAFMQGLIGQIAIPVLENQTVWVSETPTAVAYMNTQDVARFAVAALERPETIRRSFPVVGPKAWTSEEIVQFCEKSSSKTAKVIRVSPFLIGLSQRVVSFFEQSVNMAERLAFAEVTGGGIALDAPMDDTYSCFGLDSSETTPLESYISEYYDTILKRLREMEADLDEESRKKLPF | not soluble
